Laboratory results published in patent publication US20190119358A1.
*1 amine or outer side, *2 acyl side, *3 side chain or, on linkers, in order; H or OH if unused. Bridges are numbered along the chain shown (N, C = ends). Where no end group is shown, it is not given here. [ ]: non-standard residue; d: D form. The star is where a group is joined. Trp(7-aza) = N[C@@H](Cc1c[nH]c2ncccc12)C(=O)O; NMePhe(4-F) = CN[C@@H](Cc1ccc(F)cc1)C(=O)O; ivDde = CC(C)CC(=C1C(=O)CC(C)(C)CC1=O)*; mXylylene = c1cc(C[*:1])cc(C[*:2])c1; NMeY = CN[C@@H](Cc1ccc(O)cc1)C(=O)O; dPhg = N[C@@H](C(=O)O)c1ccccc1; NMeK = CN[C@@H](CCCCN)C(=O)O; Phg = N[C@H](C(=O)O)c1ccccc1; Tle = CC(C)(C)[C@H](N)C(=O)O; NMeS = CN[C@@H](CO)C(=O)O; NMeA = CN[C@@H](C)C(=O)O; Orn = NCCC[C@H](N)C(=O)O; Pra = C#CC[C@H](N)C(=O)O; Nva = CCC[C@H](N)C(=O)O; Dap = NC[C@H](N)C(=O)O; PEG2 = NCCOCCOCCC(=O)O; AEEA = NCCOCCOCC(=O)O; Acryloyl = C=CC(=O)*; Ava = NCCCCC(=O)O; Sar = CNCC(=O)O

B1: R4124 (peptide)
peptide: cyclo([PEG2]Y[Tle]KH[NMeA][Phg][Trp(7-aza)]Y[NMePhe(4-F)][Sar])
SMILES: C[C@H]1C(=O)N[C@@H](c2ccccc2)C(=O)N[C@@H](Cc2c[nH]c3ncccc23)C(=O)N[C@@H](Cc2ccc(O)cc2)C(=O)N(C)[C@@H](Cc2ccc(F)cc2)C(=O)N(C)CC(=O)NCCOCCOCCC(=O)N[C@@H](Cc2ccc(O)cc2)C(=O)N[C@@H](C(C)(C)C)C(=O)N[C@@H](CCCCN)C(=O)N[C@@H](Cc2c[nH]cn2)C(=O)N1C
B2: R4121 (peptide)
peptide: Ac-[Nva]CY[Tle]KH[NMeA][dPhg][Trp(7-aza)]Y[NMePhe(4-F)][NMeA]C-NH2
modifications: linker 2-13 via mXylylene
SMILES: CCC[C@H](NC(C)=O)C(=O)N[C@H]1CSCc2cccc(c2)CSC[C@@H](C(N)=O)NC(=O)[C@H](C)N(C)C(=O)[C@H](Cc2ccc(F)cc2)N(C)C(=O)[C@H](Cc2ccc(O)cc2)NC(=O)[C@H](Cc2c[nH]c3ncccc23)NC(=O)[C@@H](c2ccccc2)NC(=O)[C@H](C)N(C)C(=O)[C@H](Cc2c[nH]cn2)NC(=O)[C@H](CCCCN)NC(=O)[C@H](C(C)(C)C)NC(=O)[C@H](Cc2ccc(O)cc2)NC1=O
B3: R4135 (peptide)
peptide: Ac-[Nva]CY[Tle]K(ivDde)H[NMeA][Phg][Trp(7-aza)]Y[NMePhe(4-F)][Sar]C
modifications: linker 2-13 via m‑xylylene
B4: R4134 (peptide)
peptide: Ac-[Nva]CY[Tle]K(4‑(dimethylamino)benzoyl)H[NMeA][Phg][Trp(7-aza)]Y[NMePhe(4-F)][Sar]C-NH2
modifications: linker 2-13 via mXylylene
B5: R4120 (peptide)
peptide: Ac-[Nva]CY[Tle]KH[NMeA][Phg][Trp(7-aza)]Y[NMePhe(4-F)][Sar]CGGGCAIL-NH2
modifications: linker 2-13 via mXylylene
SMILES: CCC[C@H](NC(C)=O)C(=O)N[C@H]1CSCc2cccc(c2)CSC[C@@H](C(=O)NCC(=O)NCC(=O)NCC(=O)N[C@@H](CS)C(=O)N[C@@H](C)C(=O)N[C@H](C(=O)N[C@@H](CC(C)C)C(N)=O)[C@@H](C)CC)NC(=O)CN(C)C(=O)[C@H](Cc2ccc(F)cc2)N(C)C(=O)[C@H](Cc2ccc(O)cc2)NC(=O)[C@H](Cc2c[nH]c3ncccc23)NC(=O)[C@H](c2ccccc2)NC(=O)[C@H](C)N(C)C(=O)[C@H](Cc2c[nH]cn2)NC(=O)[C@H](CCCCN)NC(=O)[C@H](C(C)(C)C)NC(=O)[C@H](Cc2ccc(O)cc2)NC1=O
B6: R4123 (peptide)
peptide: Ac-[Nva]CY[Tle]AK(Acryloyl)[NMeA][Phg][Trp(7-aza)]Y[NMePhe(4-F)][Sar]C-NH2
modifications: linker 2-13 via mXylylene
SMILES: C=CC(=O)NCCCC[C@@H]1NC(=O)[C@H](C)NC(=O)[C@H](C(C)(C)C)NC(=O)[C@H](Cc2ccc(O)cc2)NC(=O)[C@@H](NC(=O)[C@H](CCC)NC(C)=O)CSCc2cccc(c2)CSC[C@@H](C(N)=O)NC(=O)CN(C)C(=O)[C@H](Cc2ccc(F)cc2)N(C)C(=O)[C@H](Cc2ccc(O)cc2)NC(=O)[C@H](Cc2c[nH]c3ncccc23)NC(=O)[C@H](c2ccccc2)NC(=O)[C@H](C)N(C)C1=O
B7: R4126 (peptide)
peptide: Ac-[Nva]CY[Tle]KA[NMeA][Phg][Trp(7-aza)]Y[NMePhe(4-F)][Sar]C-NH2
modifications: linker 2-13 via mXylylene
SMILES: CCC[C@H](NC(C)=O)C(=O)N[C@H]1CSCc2cccc(c2)CSC[C@@H](C(N)=O)NC(=O)CN(C)C(=O)[C@H](Cc2ccc(F)cc2)N(C)C(=O)[C@H](Cc2ccc(O)cc2)NC(=O)[C@H](Cc2c[nH]c3ncccc23)NC(=O)[C@H](c2ccccc2)NC(=O)[C@H](C)N(C)C(=O)[C@H](C)NC(=O)[C@H](CCCCN)NC(=O)[C@H](C(C)(C)C)NC(=O)[C@H](Cc2ccc(O)cc2)NC1=O
B8: R4131 (peptide)
peptide: Ac-[Nva]CY[Tle]KH[NMeA][Phg][Trp(7-aza)]Y[NMePhe(4-F)][Sar]CGGGCVIM
modifications: linker 2-13 via mXylylene
B9: R4133 (peptide)
peptide: Ac-[Nva]CY[Tle]AH[NMeK](Acryloyl)[Phg][Trp(7-aza)]Y[NMePhe(4-F)][Sar]C-NH2
modifications: linker 2-13 via mXylylene
SMILES: C=CC(=O)NCCCC[C@H]1C(=O)N[C@@H](c2ccccc2)C(=O)N[C@@H](Cc2c[nH]c3ncccc23)C(=O)N[C@@H](Cc2ccc(O)cc2)C(=O)N(C)[C@@H](Cc2ccc(F)cc2)C(=O)N(C)CC(=O)N[C@H](C(N)=O)CSCc2cccc(c2)CSC[C@H](NC(=O)[C@H](CCC)NC(C)=O)C(=O)N[C@@H](Cc2ccc(O)cc2)C(=O)N[C@@H](C(C)(C)C)C(=O)N[C@@H](C)C(=O)N[C@@H](Cc2c[nH]cn2)C(=O)N1C
B10: R4129 (peptide)
peptide: Ac-[Nva]C[NMeY][Tle]KH[NMeA][Phg][Trp(7-aza)]Y[NMePhe(4-F)][Sar]C[dS][dA]K[Cys(StBu)]VIM
modifications: linker 2-13 via mXylylene
B11: R4127 (peptide)
peptide: Ac-[Nva]CY[Tle]KH[NMeA][Phg][Trp(7-aza)]Y[NMePhe(4-F)][Sar]CGGGCVIM-NH2
modifications: linker 2-13 via mXylylene
SMILES: CCC[C@H](NC(C)=O)C(=O)N[C@H]1CSCc2cccc(c2)CSC[C@@H](C(=O)NCC(=O)NCC(=O)NCC(=O)N[C@@H](CS)C(=O)N[C@H](C(=O)N[C@H](C(=O)N[C@@H](CCSC)C(N)=O)[C@@H](C)CC)C(C)C)NC(=O)CN(C)C(=O)[C@H](Cc2ccc(F)cc2)N(C)C(=O)[C@H](Cc2ccc(O)cc2)NC(=O)[C@H](Cc2c[nH]c3ncccc23)NC(=O)[C@H](c2ccccc2)NC(=O)[C@H](C)N(C)C(=O)[C@H](Cc2c[nH]cn2)NC(=O)[C@H](CCCCN)NC(=O)[C@H](C(C)(C)C)NC(=O)[C@H](Cc2ccc(O)cc2)NC1=O
B12: R4122 (peptide)
peptide: Ac-[Nva]CY[Tle]A[Orn](Acryloyl)[NMeA][Phg][Trp(7-aza)]Y[NMePhe(4-F)][Sar]C-NH2
modifications: linker 2-13 via mXylylene
SMILES: C=CC(=O)NCCC[C@@H]1NC(=O)[C@H](C)NC(=O)[C@H](C(C)(C)C)NC(=O)[C@H](Cc2ccc(O)cc2)NC(=O)[C@@H](NC(=O)[C@H](CCC)NC(C)=O)CSCc2cccc(c2)CSC[C@@H](C(N)=O)NC(=O)CN(C)C(=O)[C@H](Cc2ccc(F)cc2)N(C)C(=O)[C@H](Cc2ccc(O)cc2)NC(=O)[C@H](Cc2c[nH]c3ncccc23)NC(=O)[C@H](c2ccccc2)NC(=O)[C@H](C)N(C)C1=O
B13: R4136 (peptide)
peptide: Ac-[Nva]CY[Tle]A[Dap](Acryloyl)[NMeA][Phg][Trp(7-aza)]Y[NMePhe(4-F)][Sar]C-NH2
modifications: linker 2-13 via mXylylene
SMILES: C=CC(=O)NC[C@@H]1NC(=O)[C@H](C)NC(=O)[C@H](C(C)(C)C)NC(=O)[C@H](Cc2ccc(O)cc2)NC(=O)[C@@H](NC(=O)[C@H](CCC)NC(C)=O)CSCc2cccc(c2)CSC[C@@H](C(N)=O)NC(=O)CN(C)C(=O)[C@H](Cc2ccc(F)cc2)N(C)C(=O)[C@H](Cc2ccc(O)cc2)NC(=O)[C@H](Cc2c[nH]c3ncccc23)NC(=O)[C@H](c2ccccc2)NC(=O)[C@H](C)N(C)C1=O
B14: R4125 (peptide)
peptide: Ac-[Nva]CY[Tle]AH[NMeK][Phg][Trp(7-aza)]Y[NMePhe(4-F)][Sar]C-NH2
modifications: linker 2-13 via mXylylene
SMILES: CCC[C@H](NC(C)=O)C(=O)N[C@H]1CSCc2cccc(c2)CSC[C@@H](C(N)=O)NC(=O)CN(C)C(=O)[C@H](Cc2ccc(F)cc2)N(C)C(=O)[C@H](Cc2ccc(O)cc2)NC(=O)[C@H](Cc2c[nH]c3ncccc23)NC(=O)[C@H](c2ccccc2)NC(=O)[C@H](CCCCN)N(C)C(=O)[C@H](Cc2c[nH]cn2)NC(=O)[C@H](C)NC(=O)[C@H](C(C)(C)C)NC(=O)[C@H](Cc2ccc(O)cc2)NC1=O
B15: R4132 (peptide)
peptide: Ac-[Nva]CY[Tle]KH[NMeS][Phg][Trp(7-aza)]Y[NMePhe(4-F)][Sar]C-NH2
modifications: linker 2-13 via mXylylene
SMILES: CCC[C@H](NC(C)=O)C(=O)N[C@H]1CSCc2cccc(c2)CSC[C@@H](C(N)=O)NC(=O)CN(C)C(=O)[C@H](Cc2ccc(F)cc2)N(C)C(=O)[C@H](Cc2ccc(O)cc2)NC(=O)[C@H](Cc2c[nH]c3ncccc23)NC(=O)[C@H](c2ccccc2)NC(=O)[C@H](CO)N(C)C(=O)[C@H](Cc2c[nH]cn2)NC(=O)[C@H](CCCCN)NC(=O)[C@H](C(C)(C)C)NC(=O)[C@H](Cc2ccc(O)cc2)NC1=O
B16: R4130 (peptide)
peptide: cyclo([AEEA]Y[Tle]KH[NMeA][Phg][Trp(7-aza)]Y[NMePhe(4-F)][Sar][Pra])
SMILES: C#CC[C@@H]1NC(=O)CN(C)C(=O)[C@H](Cc2ccc(F)cc2)N(C)C(=O)[C@H](Cc2ccc(O)cc2)NC(=O)[C@H](Cc2c[nH]c3ncccc23)NC(=O)[C@H](c2ccccc2)NC(=O)[C@H](C)N(C)C(=O)[C@H](Cc2c[nH]cn2)NC(=O)[C@H](CCCCN)NC(=O)[C@H](C(C)(C)C)NC(=O)[C@H](Cc2ccc(O)cc2)NC(=O)COCCOCCNC1=O
B17: R4128 (peptide)
peptide: cyclo([Ava]Y[Tle]KH[NMeA][Phg][Trp(7-aza)]Y[NMePhe(4-F)][Sar][Pra])
SMILES: C#CC[C@@H]1NC(=O)CN(C)C(=O)[C@H](Cc2ccc(F)cc2)N(C)C(=O)[C@H](Cc2ccc(O)cc2)NC(=O)[C@H](Cc2c[nH]c3ncccc23)NC(=O)[C@H](c2ccccc2)NC(=O)[C@H](C)N(C)C(=O)[C@H](Cc2c[nH]cn2)NC(=O)[C@H](CCCCN)NC(=O)[C@H](C(C)(C)C)NC(=O)[C@H](Cc2ccc(O)cc2)NC(=O)CCCCNC1=O

Molecular target: GMPPNP-loaded H-Ras or GTP-loaded K-Ras
Experiment: FP competition, displacement of probe R4007 from Ras

Row | Binder | IC50 [nM]
1 | B1 | 88.4
2 | B2 | 73
3 | B3 | 364
4 | B4 | 346
5 | B5 | 65.7
6 | B6 | 85
7 | B7 | 127
8 | B8 | 278
9 | B9 | 342
10 | B10 | 227
11 | B11 | 148
12 | B12 | 77.1
13 | B13 | 392
14 | B14 | 110
15 | B15 | 281
16 | B16 | 268
17 | B17 | 215
